Reference: US11780912 (dated 2023)

Experiments:
human IL-8 [1] = target: human IL-8 (human); assay: SPR, pH 7.4, 37C
human IL-8 [2] = target: human IL-8 (human); assay: SPR, pH 5.8, 37C
human IL-8 [3] = target: human IL-8 (human); assay: SPR, pH 5.8
human IL-8 [4] = target: human IL-8 (human); assay: SPR, pH 7.4
human IL-8 [5] = target: human IL-8 (human); assay: SPR, pH 5.8, 37C; remark: listed apart in the source
human IL-8 [6] = target: human IL-8 (human); assay: SPR, pH 5.8; remark: listed apart in the source
human IL-8 [7] = target: human IL-8 (human); assay: SPR, pH 7.4; remark: listed apart in the source

Sequence of human IL-8 (human) (chain, as listed by the source): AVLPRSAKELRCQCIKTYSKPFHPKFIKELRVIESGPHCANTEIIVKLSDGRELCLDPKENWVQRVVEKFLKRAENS

Binder	Kd (human IL-8 [1])	Kd (human IL-8 [2])	Kd (human IL-8 [3])	Kd (human IL-8 [4])	Kd (human IL-8 [5])	Kd (human IL-8 [6])	Kd (human IL-8 [7])
H89/L16 (antibody, V domains shown) VH: QVQLVESGGGLVQPGGSLRLSCAASGFTFSDYYLSWVRQAPGKGLEWVGLIRNKANGYTREYSASVKGRFTISRDDSKNSLYLQMSSLKTEDTAVYYCARENHRYDVELAYWGQGTLVTVSS VL: DIQMTQSPSSLSASVGDRVTITCRASEIIYSYLAWYQQKPGKAPKLLIYNAKTHADGVPSRFSGSGSGTDFTFTISSLQPEDIATYYCQHHFGFPRTFGQGTKVEIKR	0.699 nM	35.1 nM					
Hr9/L16 (antibody, V domains shown) VH: QVQLVESGGGLVQPGGSLRLSCAASGFTFSDYYLSWVRQAPGKGLEWVGLIRNKANGYTREYSASVKGRFTISRDDSKNSLYLQMSSLKTEDTAVYYCARENYRYDVELAYWGQGTLVTVSS VL: DIQMTQSPSSLSASVGDRVTITCRASEIIYSYLAWYQQKPGKAPKLLIYNAKTHADGVPSRFSGSGSGTDFTFTISSLQPEDIATYYCQHHFGFPRTFGQGTKVEIKR	0.108 nM	5.04 nM					
H1009/L395 (antibody, V domains shown) VH: QVQLVESGGGLVQPGGSLRLSCAASGFTFSDYYLSWVRQAPGKGLEWVGLIRNKDNYHTPEYSASVKGRFTISRDDSKNSLYLTMSDLKTEDTAVYYCARENHRYDVELAYWGQGTLVTVSS VL: DIQMTQSPSSLSASVGDRVTITCRASEIIYSYLAWYQQKPGKAPKLLIYKAKTHADGVPSRFSGSGSGTDFTFTISSLQPEDIATYYCKHHFGFPRTFGQGTKVEIKR			87 nM	0.071 nM			
H89/L118 (antibody, V domains shown) VH: QVQLVESGGGLVQPGGSLRLSCAASGFTFSDYYLSWVRQAPGKGLEWVGLIRNKANGYTREYSASVKGRFTISRDDSKNSLYLQMSSLKTEDTAVYYCARENHRYDVELAYWGQGTLVTVSS VL: DIQMTQSPSSLSASVGDRVTITCRASEIIYSYLAWYQQKPGKAPKLLIYHAKTHADGVPSRFSGSGSGTDFTFTISSLQPEDIATYYCKHHFGFPRTFGQGTKVEIKR		21.5 nM	49 nM	0.17 nM	31.8 nM	48.8 nM	0.172 nM
